These results are taken from US20250262210A1 (TRUSTEES OF COLUMBIA UNIVERSITY IN THE CITY OF NEW YORK, published 2025).

Numbering of substitutions follows the chain as printed.

In test [1] the target is T1, LZTR1-FLAG (human, UniProt Q8N653 1-840).
T1 construct: Expressed in HEK 293T, HeLa or U87 cells; used as cell lysate; also called LZTR1 wild type-FLAG; LZTR1 WT; not shown: FLAG tag at the C-terminus
T1 sequence (looked up): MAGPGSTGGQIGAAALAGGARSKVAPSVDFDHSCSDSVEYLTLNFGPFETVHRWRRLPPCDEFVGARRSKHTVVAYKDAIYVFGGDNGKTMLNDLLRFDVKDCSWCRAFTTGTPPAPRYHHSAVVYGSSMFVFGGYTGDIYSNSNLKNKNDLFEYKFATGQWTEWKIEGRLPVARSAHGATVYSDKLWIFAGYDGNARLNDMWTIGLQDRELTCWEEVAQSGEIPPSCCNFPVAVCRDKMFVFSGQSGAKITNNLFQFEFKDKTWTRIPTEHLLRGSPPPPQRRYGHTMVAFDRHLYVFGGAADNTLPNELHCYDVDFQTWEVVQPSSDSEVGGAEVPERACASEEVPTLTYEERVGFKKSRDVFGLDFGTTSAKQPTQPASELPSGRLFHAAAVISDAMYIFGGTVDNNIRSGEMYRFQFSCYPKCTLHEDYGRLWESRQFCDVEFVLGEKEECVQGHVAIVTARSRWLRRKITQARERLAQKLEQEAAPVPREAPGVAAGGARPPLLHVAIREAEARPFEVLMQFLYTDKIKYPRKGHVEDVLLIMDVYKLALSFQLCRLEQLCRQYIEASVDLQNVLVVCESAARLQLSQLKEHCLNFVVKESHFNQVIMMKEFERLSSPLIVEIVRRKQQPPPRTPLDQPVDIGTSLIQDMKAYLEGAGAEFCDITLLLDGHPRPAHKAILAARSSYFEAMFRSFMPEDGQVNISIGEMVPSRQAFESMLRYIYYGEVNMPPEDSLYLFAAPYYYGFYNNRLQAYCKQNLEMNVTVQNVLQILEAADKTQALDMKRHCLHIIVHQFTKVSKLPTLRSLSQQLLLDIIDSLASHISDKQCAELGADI
As to the kind of experiment: IP/MS, LZTR1 wild type-FLAG, U87. Put shortly: (§1)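 Read-out: spectral counts from LC-MS/MS (Orbitrap Fusion) after MaxQuant identification. Variable modifications were Met oxidation, protein N-terminal acetylation and N/Q deamidation.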

For test [2], the target named is T2, LZTR1 R810W-FLAG (human, UniProt Q8N653 1-840).
T2 construct: Stably expressed in U87 cells by lentivirus; also called LZTR1-FLAG-R810W; LZTR1 RW; not shown: FLAG tag
T2 sequence (looked up): T1 sequence (looked up) with R810W
The experiment in a line: IP/MS, LZTR1 R810W-FLAG, U87. In a few lines:
as §1

B1: UFL1 (other, human, UniProt O94874 2-794, looked up)
chain: ADAWEEIRRLAADFQRAQFAEATQRLSERNCIEIVNKLIAQKQLEVVHTLDGKEYITPAQISKEMRDELHVRGGRVNIVDLQQVINVDLIHIENRIGDIIKSEKHVQLVLGQLIDENYLDRLAEEVNDKLQESGQVTISELCKTYDLPGNFLTQALTQRLGRIISGHIDLDNRGVIFTEAFVARHKARIRGLFSAITRPTAVNSLISKYGFQEQLLYSVLEELVNSGRLRGTVVGGRQDKAVFVPDIYSRTQSTWVDSFFRQNGYLEFDALSRLGIPDAVSYIKKRYKTTQLLFLKAACVGQGLVDQVEASVEEAISSGTWVDIAPLLPTSLSVEDAAILLQQVMRAFSKQASTVVFSDTVVVSEKFINDCTELFRELMHQKAEKEMKNNPVHLITEEDLKQISTLESVSTSKKDKKDERRRKATEGSGSMRGGGGGNAREYKIKKVKKKGRKDDDSDDESQSSHTGKKKPEISFMFQDEIEDFLRKHIQDAPEEFISELAEYLIKPLNKTYLEVVRSVFMSSTTSASGTGRKRTIKDLQEEVSNLYNNIRLFEKGMKFFADDTQAALTKHLLKSVCTDITNLIFNFLASDLMMAVDDPAAITSEIRKKILSKLSEETKVALTKLHNSLNEKSIEDFISCLDSAAEACDIMVKRGDKKRERQILFQHRQALAEQLKVTEDPALILHLTSVLLFQFSTHSMLHAPGRCVPQIIAFLNSKIPEDQHALLVKYQGLVVKQLVSQSKKTGQGDYPLNNELDKEQEDVASTTRKELQELSSSIKDLVLKSRKSSVTEE
On to B1, for which the binding result in test [1] and in test [2] was “binds” in each case.

B2: VPS16 (other, human, UniProt Q9H269 1-839, looked up)
chain: MDCYTANWNPLGDSAFYRKYELYSMDWDLKEELRDCLVAAAPYGGPIALLRNPWRKEKAASVRPVLDIYSASGMPLASLLWKSGPVVSLGWSAEEELLCVQEDGAVLVYGLHGDFRRHFSMGNEVLQNRVLDARIFHTEFGSGVAILTGAHRFTLSANVGDLKLRRMPEVPGLQSAPSCWTVLCQDRVAHILLAVGPDLYLLDHAACSAVTPPGLAPGVSSFLQMAVSFTYRHLALFTDTGYIWMGTASLKEKLCEFNCNIRAPPKQMVWCSRPRSKERAVVVAWERRLMVVGDAPESIQFVLDEDSYLVPELDGVRIFSRSTHEFLHEVPAASEEIFKIASMAPGALLLEAQKEYEKESQKADEYLREIQELGQLTQAVQQCIEAAGHEHQPDMQKSLLRAASFGKCFLDRFPPDSFVHMCQDLRVLNAVRDYHIGIPLTYSQYKQLTIQVLLDRLVLRRLYPLAIQICEYLRLPEVQGVSRILAHWACYKVQQKDVSDEDVARAINQKLGDTPGVSYSDIAARAYGCGRTELAIKLLEYEPRSGEQVPLLLKMKRSKLALSKAIESGDTDLVFTVLLHLKNELNRGDFFMTLRNQPMALSLYRQFCKHQELETLKDLYNQDDNHQELGSFHIRASYAAEERIEGRVAALQTAADAFYKAKNEFAAKATEDQMRLLRLQRRLEDELGGQFLDLSLHDTVTTLILGGHNKRAEQLARDFRIPDKRLWWLKLTALADLEDWEELEKFSKSKKSPIGYLPFVEICMKQHNKYEAKKYASRVGPEQKVKALLLVGDVAQAADVAIEHRNEAELSLVLSHCTGATDGATADKIQRARAQAQKK
Consider B2, for which the binding result in test [1] and in test [2] was “binds” throughout.

B3: UMPS (other, human, UniProt P11172 2-480, looked up)
chain: AVARAALGPLVTGLYDVQAFKFGDFVLKSGLSSPIYIDLRGIVSRPRLLSQVADILFQTAQNAGISFDTVCGVPYTALPLATVICSTNQIPMLIRRKETKDYGTKRLVEGTINPGETCLIIEDVVTSGSSVLETVEVLQKEGLKVTDAIVLLDREQGGKDKLQAHGIRLHSVCTLSKMLEILEQQKKVDAETVGRVKRFIQENVFVAANHNGSPLSIKEAPKELSFGARAELPRIHPVASKLLRLMQKKETNLCLSADVSLARELLQLADALGPSICMLKTHVDILNDFTLDVMKELITLAKCHEFLIFEDRKFADIGNTVKKQYEGGIFKIASWADLVNAHVVPGSGVVKGLQEVGLPLHRGCLLIAEMSSTGSLATGDYTRAAVRMAEEHSEFVVGFISGSRVSMKPEFLHLTPGVQLEAGGDNLGQQYNSPQEVIGKRGSDIIIVGRGIISAADRLEAAEMYRKAAWEAYLSRLGV
Consider B3, for which the binding result in test [1] and in test [2] was “binds” throughout.

B4: VPS51 (other, human, UniProt Q9UID3 2-782, looked up)
chain: AAAAAAGPSPGSGPGDSPEGPEGEAPERRRKAHGMLKLYYGLSEGEAAGRPAGPDPLDPTDLNGAHFDPEVYLDKLRRECPLAQLMDSETDMVRQIRALDSDMQTLVYENYNKFISATDTIRKMKNDFRKMEDEMDRLATNMAVITDFSARISATLQDRHERITKLAGVHALLRKLQFLFELPSRLTKCVELGAYGQAVRYQGRAQAVLQQYQHLPSFRAIQDDCQVITARLAQQLRQRFREGGSGAPEQAECVELLLALGEPAEELCEEFLAHARGRLEKELRNLEAELGPSPPAPDVLEFTDHGGSGFVGGLCQVAAAYQELFAAQGPAGAEKLAAFARQLGSRYFALVERRLAQEQGGGDNSLLVRALDRFHRRLRAPGALLAAAGLADAATEIVERVARERLGHHLQGLRAAFLGCLTDVRQALAAPRVAGKEGPGLAELLANVASSILSHIKASLAAVHLFTAKEVSFSNKPYFRGEFCSQGVREGLIVGFVHSMCQTAQSFCDSPGEKGGATPPALLLLLSRLCLDYETATISYILTLTDEQFLVQDQFPVTPVSTLCAEARETARRLLTHYVKVQGLVISQMLRKSVETRDWLSTLEPRNVRAVMKRVVEDTTAIDVQVGLLYEEGVRKAQSSDSSKRTFSVYSSSRQQGRYAPSYTPSAPMDTNLLSNIQKLFSERIDVFSPVEFNKVSVLTGIIKISLKTLLECVRLRTFGRFGLQQVQVDCHFLQLYLWRFVADEELVHLLLDEVVASAALRCPDPVPMEPSVVEVICERG
Take B4: the binding result in test [1] and in test [2] was “binds” in each case.

B5: UTP6 (other, human, UniProt Q9NYH9 1-597, looked up)
chain: MAEIIQERIEDRLPELEQLERIGLFSHAEIKAIIKKASDLEYKIQRRTLFKEDFINYVQYEINLLELIQRRRTRIGYSFKKDEIENSIVHRVQGVFQRASAKWKDDVQLWLSYVAFCKKWATKTRLSKVFSAMLAIHSNKPALWIMAAKWEMEDRLSSESARQLFLRALRFHPECPKLYKEYFRMELMHAEKLRKEKEEFEKASMDVENPDYSEEILKGELAWIIYKNSVSIIKGAEFHVSLLSIAQLFDFAKDLQKEIYDDLQALHTDDPLTWDYVARRELEIESQTEEQPTTKQAKAVEVGRKEERCCAVYEEAVKTLPTEAMWKCYITFCLERFTKKSNSGFLRGKRLERTMTVFRKAHELKLLSECQYKQLSVSLLCYNFLREALEVAVAGTELFRDSGTMWQLKLQVLIESKSPDIAMLFEEAFVHLKPQVCLPLWISWAEWSEGAKSQEDTEAVFKKALLAVIGADSVTLKNKYLDWAYRSGGYKKARAVFKSLQESRPFSVDFFRKMIQFEKEQESCNMANIREYYERALREFGSADSDLWMDYMKEELNHPLGRPENCGQIYWRAMKMLQGESAEAFVAKHAMHQTGHL
Turning to B5, the binding result in test [1] and in test [2] was “binds” each time.
